These results are taken from US10899824B2 (Polichem S.A., priority 2016, dated 2021).

In one experiment the test system is HSV-2 MS. Description: Post-HSV entry combination (synergy) assay, combination index. It counts as cell-based. The following applies: 0.5 ug/mL. As for the experimental part: Results obtained in the double curve assay were then analysed in silico in a ComboSyn analysis (CompuSyn for Drug Combinations and for General Dose-Effect Analysis by Ting-Chao Chou Memorial Sloan-Keltering Cancer Center New York, N.Y. and Nick Martin Massachustts Institute of Technology Cambridge, Mass.) to evaluate the potential synergies between IgGA and ACV, through the calculation of Combination Index (CI) and Dose Reduction Index (DRI).
The combination index (CI) according to Chou 2006 (23) indicates nearly additive activity in the range of 0.9-1.1, synergism under 0.9, strong synergism between 0.1 and 0.3 and very strong synergism under 0.1. Values of CI over 1.1 indicate antagonism. […]
The first step in IgGA/FOS combination activity evaluation has been the assessment of drug susceptibility for the two chosen HSV isolates already used for the Example 2. […] Combination index was calculated as in Example 2 to assess the synergism between IgGA and FOS. […]
The first step in IgGA/PCV combination activity evaluation has been the assessment of drug susceptibility for the two chosen HSV isolates (HSV-1 LV and HSV-2 MS). […] Combination index was calculated as in Example 2 to assess the synergism between IgGA and PCV. […]

Another experiment deals with HSV-1 tested isolates. Nature of the experiment: Neutralising activity against clinical isolates (pre-incubation with virus). The following applies: isolates with different susceptibility to Acyclovir; pre-incubation 1 h at 37° C. It counts as cell-based. The procedure: (§1) The neutralising activity of FabA or IgGA was evaluated by pre-incubating (1 h at 37° C.) the IgGA with the virus and adding the IgGA/virus-mixture to cell monolayer.

The next experiment relates to HSV-2 tested isolates. The experiment is described as above. It is filed as cell-based. The following applies: isolates with different susceptibility to Acyclovir; pre-incubation 1 h at 37° C. As for the experimental part:
as §1

Experiment [1] has as its system HSV-2. Description: Cell-to-cell infection inhibition (plaque areas, post-adsorption). The following applies: Fabs 200 ug/mL, IgGs 100 ug/mL. It counts as cell-based. As for the experimental part: (§2) Post post-adsorption assays have been performed in order to evaluate the contribution of IgGA in inhibiting “cell-to-cell” infection by measuring the plaque areas resulting from infected cells treated or untreated with FabA or IgGA.
(§3) Fabs tested in post-adsorption cell-to-cell infection inhibition assays have also been preliminary used at a concentration of 50 and 200 ug/mL against HSV-1 and HSV-2 tested isolates respectively*.
(§4) IgGs tested in post-adsorption “cell-to-cell” infection inhibition assays have also been preliminary used at a concentration of 25 and 100 ug/mL against HSV-1 and HSV-2 tested isolates respectively*.

Experiment [2] has as its system HSV-1. The description is as above. It is filed as cell-based. The following applies: Fabs 50 ug/mL, IgGs 25 ug/mL. As for the experimental part:
as §2, §3, §4

Experiment [3] has as its system HSV-2. Nature of the experiment: Post adsorption inhibition of infection (plaque count). The following applies: IgG 100 ug/mL added 30 minutes after infection; 48 h; VERO E6. It is filed as cell-based. The procedure:
(§5) Post-adsorption assays have been developed in order to speculate on possible administration of IgGA for the treatment of HSV infection, after the beginning of virus active replication within the host.
(§6) The first step of experimental approaches, involving post-HSV adsorption evaluation of FabA or IgGA, is the infection of VERO E6 cells with a standard amount of HSV not previously treated with the FabA or IgGA.
(§7) FabA or IgGA is added to the infected cells only after 30 minutes from virus infection. The infection is then carried out for 48 h in order to appreciate the HSV lysis plaques on VERO E6 cells. The experimental results have been evaluated by counting the plaques for infected cells receiving (post-HSV infection) FabA or IgGA compared to virus experimental positive control.
(§8) Fabs tested in post-adsorption assays have been used at a concentration of 50 and 200 ug/mL against HSV-1 and HSV-2 tested isolates respectively*.
(§9) IgGs tested in post-adsorption assays have been used at a concentration of 25 and 100 ug/mL against HSV-1 and HSV-2 tested isolates respectively*.

Experiment [4] concerns HSV-1. The experiment is described as above. It counts as cell-based. The following applies: IgG 25 ug/mL added 30 minutes after infection; 48 h; VERO E6. As for the experimental part: as §5, §6, §7, §8, §9
The next experiment has as its system HSV-1 HF strain. Description: Emergence of escape mutants under selective pressure. It counts as cell-based. The following applies: selective pressure at 5 and 10 ug/mL; sequential infection rounds. The source says: In order to evaluate the presence of escape virus mutants generated under selective pressure of IgGA, HSV-1 infected VERO-E6 cells have been treated with increasing concentrations of Fab A. More in details, VERO cells have been cultured in T25 flasks in the experimental conditions extensively described in the previous reports (“virus propagation techniques”). Cell monolayers have been then infected by HSV-1 HF strain using 50 pfu/mL of cell free virus. […] […] After three days the infected cell media have been collected and centrifuged in order to use medium centrifuged supernatants for new cell infection rounds. […] Five sequential identical infection rounds have been performed in the presence of the two concentrations of IgGA and control IgG above described. […] In order to test the capability of virus cultured in the constant presence of IgGA to escape from IgGA inhibitory activity the cell free supernatants belonging to the final infections in the presence of IgGA have been incubated 1 h at 37° C. in the presence of high IgGA concentration. After pre-incubation the neutralization mix has been used to infect new VERO-E6 cells.
VERO-E6 monolayers were infected with HSV-1 HF strain using 50 pfu/mL of cell free virus. After virus complete adsorption, the infected cells were treated for three days with subinhibitory concentrations of IgGA, namely 0.2 mg/ml and 1 mg/ml. […]

The test system of another experiment is HSV infected cells. Description: IIF binding assay of ScFv A. The following applies: ScFv format. The procedure:
ScFv gene of IgGA was successfully constructed and cloned into expression vector. ScFv format small scale production of IgGA was performed. The binding activity of ScFv A was evaluated by IIF assays on HSV infected cells.

For the molecule `O=C(O)P(=O)(O)O` [FOS, Foscarnet], in the experiment on HSV-2 MS, the “activity of FOS alone against HSV-2” value was “nearly ineffective”.

B1: IgGA: IgG1 Fab Ex2 converted into a full IgG1, identified as IgGA (antibody, V domains shown)
VH: LESGGGVVQPGRSLRLSCAASGFTFTTFAMHWVRQAPGKGLEWLAFISYDGSNKYYADSVKGRFTISRDNSKNTLYLQMNSLRAEDTSIYYCAREVWNYADYWGQGALVTVSS
VL: ELTQSPGTLSSSPGHRATLSCKASAPLGSNHMAWYQQKPGQAPRLLIYGASTRATGVPARFTGSGSGTDFTLTISSLQPEDFATYYCQQANSFPRTFGQGTKVEIK
Turning to B1, the “neutralisation of HSV-1 isolates” value in the experiment with HSV-1 tested isolates was “potently neutralises”. Also, the “neutralisation of HSV-2 isolates” value with HSV-2 tested isolates is “potently neutralises”. For the same molecule, in the experiment with HSV-2 [1], the “inhibition of plaque areas (cell-to-cell infection), HSV-2” value was “even higher than Fab A inhibition activity”. Moreover, the “inhibition of plaque areas (cell-to-cell infection), HSV-1” value in the experiment on HSV-1 [2] is reported as “even higher than Fab A inhibition activity”. Further, the “post-adsorption inhibition of new infection events and infectious foci (plaques), HSV-2” value with HSV-2 [3] is “strongly inhibits”. Further, the “post-adsorption inhibition of new infection events and infectious foci (plaques), HSV-1” value with HSV-1 [4] is “strongly inhibits”. Also, in the experiment with HSV-1 HF strain, the “generation of escape mutants under selective pressure” value is on record as “no “escape mutants” have been generated” and the “generation of escape mutants under selective pressure (Example 1)” value is listed as “no “escape mutants” were generated”.

B2: ScFv A: single chain antibody from VL and VH of Fab A with (Gly3Ser)3 linker and His tag (protein)
scFv: ELTQSPGTLSSSPGHRATLSCKASAPLGSNHMAWYQQKPGQAPRLLIYGASTRATGVPARFTGSGSGTDFTLTISSLQPEDFATYYCQQANSFPRTFGQGTKVEIKGGGSGGGSGGGSLESGGGVVQPGRSLRLSCAASGFTFTTFAMHWVRQAPGKGLEWLAFISYDGSNKYYADSVKGRFTISRDNSKNTLYLQMNSLRAEDTSIYYCAREVWNYADYWGQGALVTVSS
modifications: left off: small tags and cut ends
notes: single chain antibody from VL and VH of Fab A with (Gly3Ser)3 linker and His tag
Regarding B2, in the experiment with HSV infected cells, the “IIF signal and binding level” value is “high IIF background signal and low binding”; the “recognition of HSV infected cells in IIF” value is given as “able to recognize HSV infected cells”.
